target: T1, - (UniProt Q15116 25-167); experiment: SPR (Biacore T200); range printed
T1 sequence (Q15116 25-167): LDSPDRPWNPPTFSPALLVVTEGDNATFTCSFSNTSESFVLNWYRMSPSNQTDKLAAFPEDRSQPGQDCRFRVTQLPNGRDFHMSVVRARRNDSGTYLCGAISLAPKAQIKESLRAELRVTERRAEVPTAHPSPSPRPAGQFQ

| Kd [nM] | Binder |
| --- | --- |
| 2 | Variant 2 (scFv, V domains shown) VH: EVQLVESGGGLVQPGGSLRLSCAASGFTFSSYTMSWVRQAPGKGLEWVSYISHGGGDTYYADSVKGRFTISRDNSKNTLYLQMNSLRAEDTAVYYCARHSGYERGYYYVMDYWGQGTLVTVSS VL: DIVMTQSPDSLAVSLGERATINCKASESVDYYGFSFLNWFQQKPGQPPKLLIYAASNRESGVPDRFSGSGSGTDFTLTISSLQAEDVAVYYCQQSKEVPWTFGQGTKLEIKR |

target: T1, -; experiment: SPR (Biacore T200)

| Binder | Kd [nM] |
| --- | --- |
| Variant 7 (scFv, V domains shown) VH: EVKLLESGGGLVQPGGSLRLSCAASGFTFSSYTMSWVRQAPGKGLEWVSYISHGGGDTYYPDSVKGRFTISRDNSKNTLYLQMNSLRAEDTAVYYCARHSGYERGYYYVMDYWGKGTTVTVSS VL: DIVMTQSPDSLAVSLGERATINCKSSESVDYYGFSFLNWFQQKPGQPPKLLIYAASNRESGVPDRFSGSGSGTDFTLTISSLQAEDVAVYYCQQSKEVPWTFGQGTKLEIK | 0.67 |
| Variant 8 (scFv, V domains shown) VH: EVKLLESGGGLVQPGGSLRLSCAASGFTFSSYTMSWVRQAPGKGLEWVSYISHGGGDTYYPDSVKGRFTISRDNSKNTLYLQMNSLRAEDTAVYYCARHSGYERGYYYVMDYWGKGTTVTVSS VL: DIVMTQSPDSLAVSLGERATINCKASESVDYYGFSFLNWFQQKPGQPPKLLIYAASNRESGVPDRFSGSGSGTDFTLTISSLQAEDVAVYYCQQSKEVPWTFGQGTKLEIK | 2.6 |
| Variant 5 (scFv, V domains shown) VH: EVQLVESGGGLVQPGGSLRLSCAASGFTFSSYTMSWVRQAPGKGLEWVSYISHGGGDTYYPDSVKGRFTISRDNSKNTLYLQMNSLRAEDTAVYYCARHSGYERGYYYVMDYWGQGTLVTVSS VL: DIVMTQSPDSLAVSLGERATINCKASESVDYYGFSFLNWFQQKPGQPPKLLIYAASNRESGVPDRFSGSGSGTDFTLTISSLQAEDVAVYYCQQSKEVPWTFGQGTKLEIKR | 2.3 |

Continued, values first:

| Kd [nM] | Binder |
| --- | --- |
| 5.6 | Variant 3 (scFv, V domains shown) VH: EVQLVESGGGLVQPGGSLRLSCAASGFTFSSYTMSWVRQAPGKGLEWVSYISHGGGDTYYADSVKGRFTISRDNSKNTLYLQMNSLRAEDTAVYYCARHSGYERGYYYVMDYWGQGTLVTVSS VL: DIQLTQSPDSLSVSLGERATINCKASESVDYYGFSFLNWFQQKPGQPPKLLIYAASNRQSGVPDRFSGSGSGTDFTLTISSLQAEDVAVYFCQQSKEVPWTFGQGTKLEIKR |
| 5.8 | Variant 1 (scFv, V domains shown) VH: EVQLVESGGGLVQPGGSLRLSCAASGFTFSSYTMSWVRQAPGKGLEWVSYISHGGGDTYYADSVKGRFTISRDNSKNTLYLQMNSLRAEDTAVYYCARHSGYERGYYYVMDYWGQGTLVTVSS VL: DIVMTQSPDSLAVSLGERATINCKSSESVDYYGFSFLNWFQQKPGQPPKLLIYAASNRESGVPDRFSGSGSGTDFTLTISSLQAEDVAVYYCQQSKEVPWTFGQGTKLEIKR |
| 5.8 | Variant 6 (scFv, V domains shown) VH: EVQLVESGGGLVQPGGSLRLSCAASGFTFSSYTMSWVRQAPGKGLEWVSYISHGGGDTYYPDSVKGRFTISRDNSKNTLYLQMNSLRAEDTAVYYCARHSGYERGYYYVMDYWGQGTLVTVSS VL: DIQLTQSPDSLSVSLGERATINCKASESVDYYGFSFLNWFQQKPGQPPKLLIYAASNRQSGVPDRFSGSGSGTDFTLTISSLQAEDVAVYFCQQSKEVPWTFGQGTKLEIKR |
| 3.6 | Variant 4 (scFv, V domains shown) VH: EVQLVESGGGLVQPGGSLRLSCAASGFTFSSYTMSWVRQAPGKGLEWVSYISHGGGDTYYPDSVKGRFTISRDNSKNTLYLQMNSLRAEDTAVYYCARHSGYERGYYYVMDYWGQGTLVTVSS VL: DIVMTQSPDSLAVSLGERATINCKSSESVDYYGFSFLNWFQQKPGQPPKLLIYAASNRESGVPDRFSGSGSGTDFTLTISSLQAEDVAVYYCQQSKEVPWTFGQGTKLEIKR |
